Absorbance (450 nm) (absorbance (450 nm)) data for one substance are collected here from EP4365192A1.

Test [1] deals with Recombinant Human FGFR1 alpha (IIIc) Fc Chimera Protein (R&D systems, 658-FR-050) (human) (UniProt P11362). Briefly: ELISA: FGFR1 alpha (IIIc)-Fc coated at 0.5 ug/ml; FGF sample at 80 ng/mL after 48 h at 37°C; detected with biotinylated anti-FGF antibody BAM233 and streptavidin-HRP; blank subtracted.
The target is the same in test [2]. Briefly: ELISA: FGFR1 alpha (IIIc)-Fc coated at 0.5 ug/ml; FGF sample at 80 ng/mL after 6 h at 37°C; detected with biotinylated anti-FGF antibody BAM233 and streptavidin-HRP; blank subtracted. In general terms: In an ELISA, binding on a coated surface is turned into a signal by an enzyme label.
Test [3] shares this target. The test can be described thus: ELISA: FGFR1 alpha (IIIc)-Fc coated at 0.5 ug/ml; FGF sample at 80 ng/mL after 24 h at 37°C; detected with biotinylated anti-FGF antibody BAM233 and streptavidin-HRP; blank subtracted.
For test [4] the target is unchanged. The test can be described thus: ELISA: FGFR1 alpha (IIIc)-Fc coated at 0.5 ug/ml; FGF sample at 80 ng/mL after 0 h at 37°C; detected with biotinylated anti-FGF antibody BAM233 and streptavidin-HRP; blank subtracted.

Recombinant Human FGFR1 alpha (IIIc) Fc Chimera Protein (R&D systems, 658-FR-050) (human), sequence (P11362 22-376, change not shown): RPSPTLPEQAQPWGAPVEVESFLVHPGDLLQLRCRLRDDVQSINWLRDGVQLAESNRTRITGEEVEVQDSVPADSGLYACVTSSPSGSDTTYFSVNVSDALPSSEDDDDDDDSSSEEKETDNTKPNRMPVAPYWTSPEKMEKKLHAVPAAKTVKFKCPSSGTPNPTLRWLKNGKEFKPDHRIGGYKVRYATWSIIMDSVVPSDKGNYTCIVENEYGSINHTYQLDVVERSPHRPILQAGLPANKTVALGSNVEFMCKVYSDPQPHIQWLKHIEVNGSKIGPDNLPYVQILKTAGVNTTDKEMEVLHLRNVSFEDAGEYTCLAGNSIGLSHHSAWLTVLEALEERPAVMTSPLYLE

“FGF301 (FGF2_native_Pig) (from UniProt P03969 10-155) (ligand)”: the Absorbance (450 nm) (absorbance (450 nm)) in test [1] is 0.8; in test [2], 2.1; in test [3], 1.5; in test [4], 2.3.
